Results: US20230201365A1, “MODIFIED CD20 ANTIBODIES AND USES THEREOF” (Bright Peak Therapeutics AG, priority 2021, published 2023)

Experiments:
Raji cells = experiment: Antibody-dependent cell-mediated cytotoxicity (ADCC) bioassay; assay type: cell-based, human; details: 25:1 PBMC:Raji, FIG. 6
Experimental: To determine the effectiveness of antiCD20 IL-2 immunoconjugates in activating immune cell function, an ADCC assay was employed. Human peripheral blood mononuclear cells (hPBMC) and target cells (Raji cells expressing HiBiT) were purchased from Promega as a kit (PBMC ADCC Bioassay Kit Raji, # CS3055A17). […] Once the cells recovered cells were counted. Raji cells were suspended at a concentration of 2×10^5 per ml, and PBMCs were suspended at 5×10^6 per ml. The killing assay was conducted in a 96 well U-bottom plate. Cells were seeded at a ratio of 25:1 Effector cell (PBMC):antiCD20 Target cell (Raji). Plates were incubated for 24 hours at 37 C in 5% CO2. Cell mixtures were treated with serial dilutions of immunocytokines to induce ADCC and placed back in the incubator for an additional 24 hours. Tissue culture supernatants from wells were assayed using Nano-Glo® HiBiT Extracellular assay detection kit.

hu CD20 = target: T1, hu CD20 (Homo sapiens, UniProt P11836); experiment: CD20 binding ELISA
T1 sequence (P11836 1-297): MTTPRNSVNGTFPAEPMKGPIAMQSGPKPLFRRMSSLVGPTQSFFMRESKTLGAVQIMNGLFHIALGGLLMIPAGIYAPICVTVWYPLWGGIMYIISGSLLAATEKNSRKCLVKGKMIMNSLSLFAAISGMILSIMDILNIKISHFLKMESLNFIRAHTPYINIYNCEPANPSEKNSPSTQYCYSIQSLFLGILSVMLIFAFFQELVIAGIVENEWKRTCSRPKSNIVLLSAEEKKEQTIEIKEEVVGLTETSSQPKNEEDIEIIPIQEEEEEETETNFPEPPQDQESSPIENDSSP
Experimental: The interaction of the unmodified and of conjugated anti-CD20 antibodies with CD20 were measured by ELISA assay. […] Plates were washed four times with 100 μl of PBS-0.02% Tween20. and blocked with 25 μl of PBS-0.02% Tween20-1% BSA at 37° C. with shaking at 600 RPM, for 1 h. Plates were then washed four times with 100 μl of PBS-0.02% Tween20. […] Plates were then washed four times with 100 μl of PBS-0.02% Tween20. 25 ul of Streptavidin-Horseradish peroxidase (#RABHRP3, Merck, Buchs, Switzerland) diluted at 1:500 into PBS-0.02% Tween20-0.1% BSA were added to each well and incubated at room temperature for 30 min. Plates were then washed four times with 100 μl of PBS-0.02% Tween20. […] ELISA signal is then measured at 450 nm on an ENSPIRE® plate reader from Perkin Elmer (Schwerzenbach, Switzerland).

mu FcγRIII (CD16) = target: T2, mu FcγRIII (CD16) (Mus musculus, UniProt P08508); experiment: Fc gamma receptor binding ELISA
T2 construct: purchased R&D Systems 1960-FC-050
T2 sequence (P08508 31-261): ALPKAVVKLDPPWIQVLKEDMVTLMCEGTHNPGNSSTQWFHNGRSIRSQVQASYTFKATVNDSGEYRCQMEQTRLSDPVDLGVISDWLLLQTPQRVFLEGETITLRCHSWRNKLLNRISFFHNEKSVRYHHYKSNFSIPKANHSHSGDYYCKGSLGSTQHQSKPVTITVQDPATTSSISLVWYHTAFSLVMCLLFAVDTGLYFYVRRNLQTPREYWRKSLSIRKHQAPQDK
Experimental: (§1) To analyze Fc Receptor gamma binding test molecules were diluted to 2.5 ug/ml in PBS and plates were coated overnight at 4° C. The next day the assay plates were washed four times with 100 ul of wash buffer: PBS+0.02% Tween 20 and blocked with PBS+1% BSA, for one hour at 37° C., with shaking at 600 RPM. The blocked plates were then washed four times with 100 ul wash buffer. Diluted FcRgamma (Reagents listed, below) was freshly diluted in wash buffer. Plates were then incubated with 25 ul of diluted Fc for two hours with shaking at 600 RPMs, then washed with 100 ul wash buffer, four times. The wells were then incubated with 25 ul of either 1:500 diluted streptavidin-Horseradish peroxidase (HRP) for detection of human FcgR or 1:500 diluted Anti-HIS tag antibody-HRP in wash buffer. The HPR detection molecules were incubated in the wells at room temperature for one hour with shaking at 600 RPMs. Plate wells were washed with 100 ul of wash buffer, four times. Plates were detected using the chromogenic HRP substrate 3,3′,5,5;-tetramethylbenzidine (TMB). Samples were read using a spectrophotometer plate reader with OD set to 450 nm.

hu FcγRI (CD64) = target: T3, hu FcγRI (CD64) (Homo sapiens, UniProt P12314); experiment: Fc gamma receptor binding ELISA
T3 construct: purchased R&D Systems 1257-FC-050
Experimental: as §1

mu FcγRI (CD64) = target: T4, mu FcγRI (CD64) (Mus musculus, UniProt P26151); experiment: Fc gamma receptor binding ELISA
T4 construct: purchased R&D Systems 2074-FC-050
T4 sequence (P26151 25-404): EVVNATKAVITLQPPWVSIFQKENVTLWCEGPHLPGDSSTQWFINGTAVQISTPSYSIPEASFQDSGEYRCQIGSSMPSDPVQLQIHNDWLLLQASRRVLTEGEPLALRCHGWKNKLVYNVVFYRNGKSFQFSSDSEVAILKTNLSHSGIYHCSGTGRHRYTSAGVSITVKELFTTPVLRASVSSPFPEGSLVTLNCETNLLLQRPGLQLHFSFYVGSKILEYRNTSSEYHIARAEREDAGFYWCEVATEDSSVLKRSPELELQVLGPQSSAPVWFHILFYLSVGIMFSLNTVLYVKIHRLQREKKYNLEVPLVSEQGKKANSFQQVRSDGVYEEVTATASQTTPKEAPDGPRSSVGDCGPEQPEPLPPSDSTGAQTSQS
Experimental: as §1

hu FcγRIIb (CD32b) = target: T5, hu FcγRIIb (CD32b) (Homo sapiens, UniProt P31994); experiment: Fc gamma receptor binding ELISA
T5 construct: Avi-tag; purchased R&D Systems AVI1875-050
T5 sequence (P31994 43-310): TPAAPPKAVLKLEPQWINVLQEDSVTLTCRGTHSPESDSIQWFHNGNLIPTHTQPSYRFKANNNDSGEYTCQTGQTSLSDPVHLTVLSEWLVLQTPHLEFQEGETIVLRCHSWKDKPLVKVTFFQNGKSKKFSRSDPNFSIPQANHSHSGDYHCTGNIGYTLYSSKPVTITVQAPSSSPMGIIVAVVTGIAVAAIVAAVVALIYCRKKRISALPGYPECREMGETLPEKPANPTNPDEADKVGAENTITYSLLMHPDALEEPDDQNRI
Experimental: as §1

hu FcγRIII (CD16a) = target: T6, hu FcγRIII (CD16a) (Homo sapiens, UniProt P08637); experiment: Fc gamma receptor binding ELISA
T6 construct: purchased R&D Systems 4325-FC-050
Experimental: as §1

mu FcγRIV (CD16-2) = target: T7, mu FcγRIV (CD16-2) (Mus musculus, UniProt A0A0B4J1G0); experiment: Fc gamma receptor binding ELISA; details: mu FcγRIV (CD16-2) ELISA
T7 construct: purchased R&D Systems 1974-CD-050
T7 sequence (A0A0B4J1G0 21-249): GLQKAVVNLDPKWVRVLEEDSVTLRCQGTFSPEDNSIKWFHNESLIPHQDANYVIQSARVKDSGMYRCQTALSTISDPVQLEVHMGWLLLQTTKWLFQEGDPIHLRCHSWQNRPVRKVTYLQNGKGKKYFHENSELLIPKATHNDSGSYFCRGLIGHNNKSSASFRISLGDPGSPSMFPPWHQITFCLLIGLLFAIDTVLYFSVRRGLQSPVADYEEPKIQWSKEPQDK
Experimental: as §1

Human FcRn = target: T8, Human FcRn (Homo sapiens, UniProt P55899); experiment: FcRn binding AlphaLISA; details: hu FcRN binding aLISA
T8 construct: purchased PerkinElmer AL3095C
Experimental: Human IgG Conjugated Acceptor Beads (2×) and Streptavidin (SA) Donor Beads were diluted to reach final concentrations of 5 μg/ml.
To wells in the assay plates, 10 ul of diluted antibodies, 10 ul of diluted FcRn, 20 ul of human IgG conjugated Acceptor beads, and SA-Donor beads were added.

B cells = experiment: B cell depletion in hCD20 transgenic C57BL/6 mice; assay type: in vivo; details: 5 mg/kg single intraperitoneal injection on Day 0, FIG. 7A
Experimental: Animal Groupings and administration: 9 animals were randomly enrolled into three study groups based on the body weight 5 days before administration (day −5). Each group consists of 3 mice. Single doses were administered 5 day post grouping (Day 0).
Sample collection: 100 μL whole blood were collected with anticoagulant (DETA-2K) for flow cytometry. Collection time points: Day −5, Day 6, Day 9, Day 14, and Day 21.
Flow cytometry: Preparation of single cell suspensions: For the treatment of spleen samples, the spleen was transferred to a 35 mm culture dish, and then ground with a sterile syringe tail. The cells were washed and centrifuged at 500 g for 5 min at 4° C. The cell pellet was resuspended with 2 ml of red blood cell lysis buffer and incubated for 5-8 min at room temperature. A volume 10 mL of PBS was added to the cell suspension to stop the lysing, and centrifuged at 500 g for 5 min at 4° C. The cells were counted using a blood cell counting chamber. For the treatment of the blood samples, 100 μL of the blood sample was transferred into a 1.5 mL EP tube. To this, 1.4 mL of red blood cell lysis buffer is added, and mixed by inversion. The lysis is carried out for 5-8 min at room temperature. The lysed blood sample is centrifuge at 500 g for 5 min at 4° C. The resultant cell pellet is resuspended in PBS to the required volume for flow cytometry.
The flow cytometry protocol is as follows. […]

T6 sequence (P08637 17-254): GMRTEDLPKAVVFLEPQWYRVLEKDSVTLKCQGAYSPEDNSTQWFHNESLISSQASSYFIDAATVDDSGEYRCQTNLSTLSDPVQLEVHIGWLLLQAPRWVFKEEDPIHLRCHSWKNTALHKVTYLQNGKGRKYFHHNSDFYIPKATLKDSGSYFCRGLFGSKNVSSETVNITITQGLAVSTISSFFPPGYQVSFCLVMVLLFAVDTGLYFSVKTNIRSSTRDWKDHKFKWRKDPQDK
T8 sequence (P55899 24-297 limits assumed): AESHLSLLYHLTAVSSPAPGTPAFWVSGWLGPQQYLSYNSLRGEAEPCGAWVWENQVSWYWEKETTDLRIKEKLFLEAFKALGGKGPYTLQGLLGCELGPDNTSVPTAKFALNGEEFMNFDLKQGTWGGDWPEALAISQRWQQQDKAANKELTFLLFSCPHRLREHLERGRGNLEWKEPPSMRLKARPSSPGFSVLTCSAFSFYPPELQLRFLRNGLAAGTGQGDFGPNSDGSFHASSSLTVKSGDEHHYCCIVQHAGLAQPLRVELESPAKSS
T8 sequence (P61769 21-119 partner): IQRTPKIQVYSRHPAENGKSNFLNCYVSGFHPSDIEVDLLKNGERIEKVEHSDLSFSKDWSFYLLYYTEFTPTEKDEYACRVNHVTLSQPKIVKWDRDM
T3 sequence (P12314 16-374): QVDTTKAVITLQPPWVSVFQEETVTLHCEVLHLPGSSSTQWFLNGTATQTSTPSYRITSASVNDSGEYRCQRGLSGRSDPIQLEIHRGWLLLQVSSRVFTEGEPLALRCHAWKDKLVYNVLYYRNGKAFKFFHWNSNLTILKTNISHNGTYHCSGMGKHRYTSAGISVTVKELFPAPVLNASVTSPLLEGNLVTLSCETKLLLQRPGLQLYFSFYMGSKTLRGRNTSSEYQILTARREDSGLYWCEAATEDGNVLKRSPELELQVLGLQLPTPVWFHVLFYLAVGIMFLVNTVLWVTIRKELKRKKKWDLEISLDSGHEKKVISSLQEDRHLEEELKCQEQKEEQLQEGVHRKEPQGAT

With “Anti-CD20 Antibody: parent anti-CD20 antibody biosimilar Rituximab, unconjugated” the “ADCC-targeted cell killing of Raji cells” value (Raji cells) was “Less cell killing overall”, the EC50 (hu CD20) was 0.08 nM and the EC50 (mu FcγRIII (CD16)) was 133 nM. It also gave an EC50 (hu FcγRI (CD64)) of 0.23 nM, an EC50 (mu FcγRI (CD64)) of 35 nM and an EC50 (hu FcγRIIb (CD32b)) of 880 nM. The EC50 (hu FcγRIII (CD16a)) was 185 nM, the EC50 (mu FcγRIV (CD16-2)) was 20 nM and the EC50 (Human FcRn) was 4 nM. The “depletion of B cells” value (B cells) was “substantial ability to deplete B cells”.
